Source: publication PMC10640585, “The E3 ligase Riplet promotes RIG-I signaling independent of RIG-I oligomerization” (Nature Communications, 2023)

T1: biotinylated Avi-tagged RIG-I (Retinoic acid inducible gene-I) (human, UniProt O95786 1-925, biotin on the Avi tag (by BirA))
T1 construct: RIG-I, human, full-length protein; Used alone (apo), pre-incubated with the RNA p3SLR14 (one RIG-I per RNA) or with p3dsRNA24 (two RIG-I per RNA); also called Avi-RIG-I; Apo-RIG-I; source: E. coli Rosetta 2(DE3), purified (Ni-NTA, heparin, SEC), biotinylated by BirA, SEC; not shown: His6, N-terminal, cleaved; SUMO, N-terminal, cleaved
T1 sequence (looked up): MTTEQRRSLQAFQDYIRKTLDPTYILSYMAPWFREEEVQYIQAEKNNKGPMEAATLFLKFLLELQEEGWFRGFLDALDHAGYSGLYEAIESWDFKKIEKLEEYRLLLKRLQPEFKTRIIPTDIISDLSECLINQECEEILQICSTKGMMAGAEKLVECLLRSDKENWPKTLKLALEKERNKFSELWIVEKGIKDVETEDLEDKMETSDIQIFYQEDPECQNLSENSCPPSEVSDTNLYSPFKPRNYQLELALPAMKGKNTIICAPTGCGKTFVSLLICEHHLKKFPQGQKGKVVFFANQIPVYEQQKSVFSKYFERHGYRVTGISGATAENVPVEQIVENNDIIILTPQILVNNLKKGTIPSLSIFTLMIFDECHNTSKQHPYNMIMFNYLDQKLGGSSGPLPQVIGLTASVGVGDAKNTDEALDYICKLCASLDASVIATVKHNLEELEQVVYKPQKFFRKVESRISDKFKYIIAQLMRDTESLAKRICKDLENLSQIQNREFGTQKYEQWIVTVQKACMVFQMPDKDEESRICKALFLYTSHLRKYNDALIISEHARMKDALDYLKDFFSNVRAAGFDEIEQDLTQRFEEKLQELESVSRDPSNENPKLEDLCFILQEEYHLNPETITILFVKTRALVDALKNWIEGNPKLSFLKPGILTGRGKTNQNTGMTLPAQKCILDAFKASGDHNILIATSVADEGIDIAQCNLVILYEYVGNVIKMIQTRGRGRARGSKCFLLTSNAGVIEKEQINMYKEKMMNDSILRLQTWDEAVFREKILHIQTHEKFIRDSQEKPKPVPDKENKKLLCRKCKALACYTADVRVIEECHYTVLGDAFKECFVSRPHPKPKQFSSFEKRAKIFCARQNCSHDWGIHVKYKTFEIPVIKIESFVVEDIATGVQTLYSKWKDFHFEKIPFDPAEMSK

T2: biotinylated Avi-tagged RIG-I (human, UniProt O95786 1-925, biotin on the Avi tag (by BirA))
T2 construct: RIG-I (Retinoic acid inducible gene-I), human, full-length; Immobilised on the SPR chip as apo protein or pre-incubated with p3SLR14 (1:1.5) or p3dsRNA24 (2.4:1; two RIG-I on one RNA); also called Avi-RIG-I; biotinylated RIG-I; source: E. coli Rosetta 2(DE3), purified (Ni-NTA, ULP1, heparin, size exclusion), biotinylated by BirA, size exclusion; not shown: 6xHis, N-terminal, cleaved; SUMO, …
T2 sequence (looked up): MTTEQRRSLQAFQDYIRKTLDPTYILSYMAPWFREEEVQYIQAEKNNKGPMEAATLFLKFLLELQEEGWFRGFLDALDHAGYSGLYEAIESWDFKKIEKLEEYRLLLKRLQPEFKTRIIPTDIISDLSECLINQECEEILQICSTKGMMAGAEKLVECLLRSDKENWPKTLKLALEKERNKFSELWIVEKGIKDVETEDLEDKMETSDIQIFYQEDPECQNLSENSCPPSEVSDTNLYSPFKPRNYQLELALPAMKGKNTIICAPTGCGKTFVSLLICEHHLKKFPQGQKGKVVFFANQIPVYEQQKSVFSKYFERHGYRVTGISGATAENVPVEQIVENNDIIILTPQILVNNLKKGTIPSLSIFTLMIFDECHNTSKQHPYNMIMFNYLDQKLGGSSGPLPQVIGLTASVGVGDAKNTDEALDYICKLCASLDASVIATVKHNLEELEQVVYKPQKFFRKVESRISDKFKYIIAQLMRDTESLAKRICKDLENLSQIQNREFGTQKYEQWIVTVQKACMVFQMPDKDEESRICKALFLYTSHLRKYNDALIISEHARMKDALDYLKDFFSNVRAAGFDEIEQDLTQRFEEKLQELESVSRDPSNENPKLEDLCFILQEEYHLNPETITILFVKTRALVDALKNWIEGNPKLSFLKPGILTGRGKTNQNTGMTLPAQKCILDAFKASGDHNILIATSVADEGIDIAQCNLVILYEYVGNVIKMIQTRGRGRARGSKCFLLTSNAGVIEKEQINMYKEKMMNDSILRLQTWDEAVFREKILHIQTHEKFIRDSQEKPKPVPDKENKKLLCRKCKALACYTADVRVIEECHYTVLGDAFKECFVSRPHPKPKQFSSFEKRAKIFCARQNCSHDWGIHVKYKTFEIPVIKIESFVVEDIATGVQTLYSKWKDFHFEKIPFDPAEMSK


Assays:
Conditions in all cases: both partners purified
[1] = biological target: T1, biotinylated Avi-tagged RIG-I (Retinoic …); experiment: SPR; biotinylated RIG-I pre-incubated with p3SLR14 (1:1.5, 4 °C overnight) immobilised on a streptavidin SADH chip; Riplet constructs as analyte in HBS-EP+, 50 µl/min, dissociation 180 s, OneStep mode, 1:1 model
[2] = biological target: T1, biotinylated Avi-tagged RIG-I (Retinoic …); experiment: SPR; biotinylated RIG-I pre-incubated with p3dsRNA24 (2.4:1, 4 °C overnight; two RIG-I per RNA) immobilised on a streptavidin SADH chip; Riplet constructs as analyte in HBS-EP+, 50 µl/min, dissociation 180 s, OneStep mode, 1:1 model
[3] = biological target: T1, biotinylated Avi-tagged RIG-I (Retinoic …); experiment: SPR; biotinylated apo-RIG-I (no RNA) immobilised on a streptavidin SADH chip; Riplet constructs as analyte in HBS-EP+, 50 µl/min, dissociation 180 s, OneStep mode, 1:1 model
[4] = biological target: T2, biotinylated Avi-tagged RIG-I; experiment: SPR; biotinylated RIG-I pre-incubated with p3dsRNA24 (2.4:1, 4 °C overnight; two RIG-I on one RNA) immobilised on streptavidin SADH chip; Riplet constructs 0.125-10 µM in HBS-EP+, 50 µl/min, dissociation 180 s, OneStep mode, 1:1 model
[5] = biological target: T2, biotinylated Avi-tagged RIG-I; experiment: SPR; biotinylated RIG-I pre-incubated with p3SLR14 (1:1.5, 4 °C overnight) immobilised on streptavidin SADH chip; Riplet constructs 0.125-10 µM in HBS-EP+, 50 µl/min, dissociation 180 s, OneStep mode, 1:1 model

koff [1] [s⁻¹]	kon [1] [M⁻¹ s⁻¹]	koff [2] [s⁻¹]	kon [2] [M⁻¹ s⁻¹]	Kd [3] [nM]	koff [3] [s⁻¹]	kon [3] [M⁻¹ s⁻¹]	Kd [4] [nM]	Kd [5] [nM]	Binder
0.067	54000	0.0085	810000	700	0.073	110000	–	–	Riplet-ΔRING (94-432) (domain or fragment, human, UniProt Q8IUD6 94-432, looked up, Riplet, human, residues 94-432 (CC and PrySpry domains, RING deleted); source: E. coli Rosetta 2(DE3), purified (Ni-NTA, SEC); not shown: His6, N-terminal, cleaved; SUMO, N-terminal, cleaved) AGSDPAHCPCPGSSSLSSAAARPRRRPELQRVAVEKSITEVAQELTELVEHLVDIVRSLQNQRPLSESGPDNELSILGKAFSSGVDLSMASPKLVTSDTAAGKIRDILHDLEEIQEKLQESVTWKEAPEAQMQGELLEAPSSSSCPLPDQSHPALRRASRFAQWAIHPTFNLKSLSCSLEVSKDSRTVTVSHRPQPYRWSCERFSTSQVLCSQALSSGKHYWEVDTRNCSHWAVGVASWEMSRDQVLGRTMDSCCVEWKGTSQLSAWHMVKETVLGSDRPGVVGIWLNLEEGKLAFYSVDNQEKLLYECTISASSPLYPAFWLYGLHPGNYLIIKQVKV
–	–	–	–	–	–	–	10	700 to 1200	Riplet-ΔRING (94-432) (domain or fragment, human, UniProt Q8IUD6 94-432, looked up, Riplet, human, residues 94-432 (RING domain deleted; CC and PrySpry domains kept); pET-SUMO-Riplet-ΔRING(94-432); the PDB entries are of the full-length parent; source: E. coli Rosetta 2(DE3), purified (Ni-NTA, ULP1 digestion, size exclusion); not shown: 6xHis, N-terminal, cleaved; SUMO, N-terminal, cleaved) AGSDPAHCPCPGSSSLSSAAARPRRRPELQRVAVEKSITEVAQELTELVEHLVDIVRSLQNQRPLSESGPDNELSILGKAFSSGVDLSMASPKLVTSDTAAGKIRDILHDLEEIQEKLQESVTWKEAPEAQMQGELLEAPSSSSCPLPDQSHPALRRASRFAQWAIHPTFNLKSLSCSLEVSKDSRTVTVSHRPQPYRWSCERFSTSQVLCSQALSSGKHYWEVDTRNCSHWAVGVASWEMSRDQVLGRTMDSCCVEWKGTSQLSAWHMVKETVLGSDRPGVVGIWLNLEEGKLAFYSVDNQEKLLYECTISASSPLYPAFWLYGLHPGNYLIIKQVKV
0.013	19000	0.003	450000	–	0.0034	4600	–	–	Riplet full length (RING finger protein leading to RIG-I activation) (enzyme, human, UniProt Q8IUD6 1-432, looked up, Riplet, human, full length (1-432); also called Riplet-FL; Riplet WT; source: E. coli Rosetta 2(DE3), purified (Ni-NTA, SEC); not shown: His6, N-terminal, cleaved; SUMO, N-terminal, cleaved) MAGLGLGSAVPVWLAEDDLGCIICQGLLDWPATLPCGHSFCRHCLEALWGARDARRWACPTCRQGAAQQPHLRKNTLLQDLADKYRRAAREIQAGSDPAHCPCPGSSSLSSAAARPRRRPELQRVAVEKSITEVAQELTELVEHLVDIVRSLQNQRPLSESGPDNELSILGKAFSSGVDLSMASPKLVTSDTAAGKIRDILHDLEEIQEKLQESVTWKEAPEAQMQGELLEAPSSSSCPLPDQSHPALRRASRFAQWAIHPTFNLKSLSCSLEVSKDSRTVTVSHRPQPYRWSCERFSTSQVLCSQALSSGKHYWEVDTRNCSHWAVGVASWEMSRDQVLGRTMDSCCVEWKGTSQLSAWHMVKETVLGSDRPGVVGIWLNLEEGKLAFYSVDNQEKLLYECTISASSPLYPAFWLYGLHPGNYLIIKQVKV
